Assay results: patent US20190263889A1
Values joined by “and” are separate entries in the source; they are usually repeats but may differ in a detail not shown here. Equal values may be shown once.

Columns and labels:
[1] = target: CTLA-4Fc mutant protein M1 (human (murine residues substituted)); assay: ELISA; binder 1 ug/ml on coated target
[2] = target: CTLA-4Fc mutant protein M10 (human (murine residues substituted)); assay: ELISA; binder 1 ug/ml on coated target
[3] = target: CTLA-4Fc mutant protein M11 (human (murine residues substituted)); assay: ELISA; binder 1 ug/ml on coated target
Sequence of CTLA-4Fc mutant protein M11 (human (murine residues substituted)) (chain, as listed by the source mutant): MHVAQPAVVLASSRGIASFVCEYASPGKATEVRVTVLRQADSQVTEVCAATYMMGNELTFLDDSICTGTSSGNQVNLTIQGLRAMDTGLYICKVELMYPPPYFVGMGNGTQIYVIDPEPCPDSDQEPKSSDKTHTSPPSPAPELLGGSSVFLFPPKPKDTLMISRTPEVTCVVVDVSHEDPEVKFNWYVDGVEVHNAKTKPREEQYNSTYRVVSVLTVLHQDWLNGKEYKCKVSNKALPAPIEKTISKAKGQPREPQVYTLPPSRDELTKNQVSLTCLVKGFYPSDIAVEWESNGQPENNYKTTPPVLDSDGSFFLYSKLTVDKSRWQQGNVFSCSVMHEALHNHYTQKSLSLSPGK

[4] = target: CTLA-4Fc mutant protein M2 (human (murine residues substituted)); assay: ELISA; binder 1 ug/ml on coated target
Sequence of CTLA-4Fc mutant protein M2 (human (murine residues substituted)) (chain, as listed by the source mutant): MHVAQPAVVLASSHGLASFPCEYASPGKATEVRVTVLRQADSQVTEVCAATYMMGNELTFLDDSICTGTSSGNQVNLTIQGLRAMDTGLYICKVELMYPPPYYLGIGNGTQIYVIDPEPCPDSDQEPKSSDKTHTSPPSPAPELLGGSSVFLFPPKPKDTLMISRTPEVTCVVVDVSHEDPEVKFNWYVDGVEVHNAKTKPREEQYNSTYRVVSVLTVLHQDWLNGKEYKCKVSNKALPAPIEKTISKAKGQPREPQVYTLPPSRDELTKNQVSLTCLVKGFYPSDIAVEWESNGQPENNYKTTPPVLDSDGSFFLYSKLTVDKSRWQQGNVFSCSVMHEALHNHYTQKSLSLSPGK

[5] = target: CTLA-4Fc mutant protein M3 (human (murine residues substituted)); assay: ELISA; binder 1 ug/ml on coated target
Sequence of CTLA-4Fc mutant protein M3 (human (murine residues substituted)) (chain, as listed by the source mutant): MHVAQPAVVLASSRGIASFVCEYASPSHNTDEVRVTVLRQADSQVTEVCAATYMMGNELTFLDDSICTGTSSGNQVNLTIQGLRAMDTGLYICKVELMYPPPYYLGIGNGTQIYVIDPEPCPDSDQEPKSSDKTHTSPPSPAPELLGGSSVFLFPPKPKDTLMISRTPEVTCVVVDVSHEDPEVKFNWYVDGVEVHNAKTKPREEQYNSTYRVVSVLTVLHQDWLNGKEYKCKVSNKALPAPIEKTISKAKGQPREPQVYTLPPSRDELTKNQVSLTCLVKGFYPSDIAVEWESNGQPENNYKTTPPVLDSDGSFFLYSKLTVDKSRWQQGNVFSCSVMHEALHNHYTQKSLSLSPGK

[6] = target: CTLA-4Fc mutant protein M4 (human (murine residues substituted)); assay: ELISA; binder 1 ug/ml on coated target
Sequence of CTLA-4Fc mutant protein M4 (human (murine residues substituted)) (chain, as listed by the source mutant): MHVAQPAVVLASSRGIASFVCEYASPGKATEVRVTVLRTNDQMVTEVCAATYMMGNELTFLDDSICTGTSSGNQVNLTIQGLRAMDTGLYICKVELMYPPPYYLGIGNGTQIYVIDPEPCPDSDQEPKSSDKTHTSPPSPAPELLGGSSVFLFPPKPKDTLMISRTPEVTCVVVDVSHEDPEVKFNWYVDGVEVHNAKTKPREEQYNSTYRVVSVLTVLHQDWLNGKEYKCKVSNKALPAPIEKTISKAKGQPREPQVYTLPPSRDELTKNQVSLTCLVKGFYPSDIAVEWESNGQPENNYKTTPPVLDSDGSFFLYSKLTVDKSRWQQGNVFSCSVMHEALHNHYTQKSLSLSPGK

[7] = target: CTLA-4Fc mutant protein M5 (human (murine residues substituted)); assay: ELISA; binder 1 ug/ml on coated target
Sequence of CTLA-4Fc mutant protein M5 (human (murine residues substituted)) (chain, as listed by the source mutant): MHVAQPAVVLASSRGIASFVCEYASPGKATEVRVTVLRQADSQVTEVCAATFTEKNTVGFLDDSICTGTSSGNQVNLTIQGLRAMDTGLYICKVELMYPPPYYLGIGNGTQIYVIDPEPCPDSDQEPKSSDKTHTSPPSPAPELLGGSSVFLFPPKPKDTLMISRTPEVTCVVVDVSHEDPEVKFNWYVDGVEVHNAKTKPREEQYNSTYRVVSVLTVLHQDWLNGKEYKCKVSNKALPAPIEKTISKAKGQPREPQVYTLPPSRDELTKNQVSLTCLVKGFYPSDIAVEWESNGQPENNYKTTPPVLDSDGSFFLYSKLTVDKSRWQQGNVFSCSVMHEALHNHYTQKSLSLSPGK

[8] = target: CTLA-4Fc mutant protein M6 (human (murine residues substituted)); assay: ELISA; binder 1 ug/ml on coated target
Sequence of CTLA-4Fc mutant protein M6 (human (murine residues substituted)) (chain, as listed by the source mutant): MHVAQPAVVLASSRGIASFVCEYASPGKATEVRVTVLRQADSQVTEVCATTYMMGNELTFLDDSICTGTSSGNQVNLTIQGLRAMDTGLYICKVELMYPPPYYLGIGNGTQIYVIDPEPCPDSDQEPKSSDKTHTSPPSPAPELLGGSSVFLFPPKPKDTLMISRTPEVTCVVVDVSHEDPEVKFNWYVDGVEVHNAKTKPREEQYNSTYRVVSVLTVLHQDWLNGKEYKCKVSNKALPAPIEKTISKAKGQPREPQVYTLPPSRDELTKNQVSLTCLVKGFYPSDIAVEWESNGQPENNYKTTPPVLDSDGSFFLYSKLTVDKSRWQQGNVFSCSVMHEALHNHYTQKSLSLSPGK

[9] = target: CTLA-4Fc mutant protein M7 (human (murine residues substituted)); assay: ELISA; binder 1 ug/ml on coated target
Sequence of CTLA-4Fc mutant protein M7 (human (murine residues substituted)) (chain, as listed by the source mutant): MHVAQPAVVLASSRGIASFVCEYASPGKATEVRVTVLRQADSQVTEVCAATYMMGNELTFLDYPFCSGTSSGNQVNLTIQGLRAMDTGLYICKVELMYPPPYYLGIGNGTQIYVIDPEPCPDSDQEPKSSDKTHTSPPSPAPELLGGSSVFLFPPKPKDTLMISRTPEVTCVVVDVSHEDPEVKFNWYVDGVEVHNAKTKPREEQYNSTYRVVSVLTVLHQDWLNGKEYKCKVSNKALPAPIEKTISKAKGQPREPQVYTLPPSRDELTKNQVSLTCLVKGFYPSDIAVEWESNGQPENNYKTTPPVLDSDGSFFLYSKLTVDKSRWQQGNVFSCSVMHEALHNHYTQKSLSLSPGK

[10] = target: CTLA-4Fc mutant protein M8 (human (murine residues substituted)); assay: ELISA; binder 1 ug/ml on coated target
Sequence of CTLA-4Fc mutant protein M8 (human (murine residues substituted)) (chain, as listed by the source mutant): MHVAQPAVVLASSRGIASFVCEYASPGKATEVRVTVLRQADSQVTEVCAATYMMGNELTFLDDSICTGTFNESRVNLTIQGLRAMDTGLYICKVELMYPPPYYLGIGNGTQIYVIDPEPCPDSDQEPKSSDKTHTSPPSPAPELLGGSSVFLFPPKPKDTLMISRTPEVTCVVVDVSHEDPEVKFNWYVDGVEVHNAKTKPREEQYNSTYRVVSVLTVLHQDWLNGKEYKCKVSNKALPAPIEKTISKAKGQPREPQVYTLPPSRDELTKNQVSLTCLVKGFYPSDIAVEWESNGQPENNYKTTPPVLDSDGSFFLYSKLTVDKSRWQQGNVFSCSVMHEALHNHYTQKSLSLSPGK

[11] = target: CTLA-4Fc mutant protein M9 (human (murine residues substituted)); assay: ELISA; binder 1 ug/ml on coated target
Sequence of CTLA-4Fc mutant protein M9 (human (murine residues substituted)) (chain, as listed by the source mutant): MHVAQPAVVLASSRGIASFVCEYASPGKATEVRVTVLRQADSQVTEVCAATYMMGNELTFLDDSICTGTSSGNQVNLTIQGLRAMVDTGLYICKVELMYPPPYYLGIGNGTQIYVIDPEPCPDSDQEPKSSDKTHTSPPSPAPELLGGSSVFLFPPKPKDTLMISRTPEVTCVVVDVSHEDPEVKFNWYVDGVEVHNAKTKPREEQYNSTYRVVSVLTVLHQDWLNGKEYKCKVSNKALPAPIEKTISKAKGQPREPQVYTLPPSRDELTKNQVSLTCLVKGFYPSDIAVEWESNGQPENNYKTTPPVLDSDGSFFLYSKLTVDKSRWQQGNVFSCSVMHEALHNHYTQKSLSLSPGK

[12] = target: wild type human CTLA-4Fc fusion protein (abatacept) (human); assay: ELISA; binder 1 ug/ml on coated target
Sequence of wild type human CTLA-4Fc fusion protein (abatacept) (human) (chain, as listed by the source limits assumed): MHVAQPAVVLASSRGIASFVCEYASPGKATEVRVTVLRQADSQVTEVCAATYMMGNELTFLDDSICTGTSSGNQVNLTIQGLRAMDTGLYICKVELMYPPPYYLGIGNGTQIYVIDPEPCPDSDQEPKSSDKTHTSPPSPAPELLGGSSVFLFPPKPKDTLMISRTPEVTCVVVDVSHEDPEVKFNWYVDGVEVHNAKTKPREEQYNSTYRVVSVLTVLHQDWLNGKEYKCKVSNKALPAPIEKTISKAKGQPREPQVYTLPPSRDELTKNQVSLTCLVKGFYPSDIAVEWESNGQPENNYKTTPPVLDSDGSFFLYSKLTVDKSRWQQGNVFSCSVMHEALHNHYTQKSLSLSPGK

[13] = target: CTLA-4Fc mutant protein M3 (human (murine residues substituted)); assay: ELISA; binder 10 ng/ml on coated target
[14] = target: CTLA-4Fc mutant protein M6 (human (murine residues substituted)); assay: ELISA; binder 10 ng/ml on coated target
mouse CTLA-4-Fc (mouse) [15] = target: mouse CTLA-4-Fc (mouse) (UniProt P09793); assay: ELISA; binder 10 ng/ml on coated target
Sequence of mouse CTLA-4-Fc (mouse) (P09793 36-161 limits assumed): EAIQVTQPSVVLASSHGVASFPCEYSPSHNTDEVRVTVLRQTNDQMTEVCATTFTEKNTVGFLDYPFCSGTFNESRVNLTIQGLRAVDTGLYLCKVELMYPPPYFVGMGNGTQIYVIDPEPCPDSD

[16] = target: CTLA-4Fc mutant protein M1 (human (murine residues substituted)); assay: ELISA; binder 100 ng/ml on coated target
[17] = target: CTLA-4Fc mutant protein M10 (human (murine residues substituted)); assay: ELISA; binder 100 ng/ml on coated target
[18] = target: CTLA-4Fc mutant protein M11 (human (murine residues substituted)); assay: ELISA; binder 100 ng/ml on coated target
[19] = target: CTLA-4Fc mutant protein M2 (human (murine residues substituted)); assay: ELISA; binder 100 ng/ml on coated target
[20] = target: CTLA-4Fc mutant protein M3 (human (murine residues substituted)); assay: ELISA; binder 100 ng/ml on coated target
[21] = target: CTLA-4Fc mutant protein M4 (human (murine residues substituted)); assay: ELISA; binder 100 ng/ml on coated target
[22] = target: CTLA-4Fc mutant protein M5 (human (murine residues substituted)); assay: ELISA; binder 100 ng/ml on coated target
[23] = target: CTLA-4Fc mutant protein M6 (human (murine residues substituted)); assay: ELISA; binder 100 ng/ml on coated target
[24] = target: CTLA-4Fc mutant protein M7 (human (murine residues substituted)); assay: ELISA; binder 100 ng/ml on coated target
[25] = target: CTLA-4Fc mutant protein M8 (human (murine residues substituted)); assay: ELISA; binder 100 ng/ml on coated target
[26] = target: CTLA-4Fc mutant protein M9 (human (murine residues substituted)); assay: ELISA; binder 100 ng/ml on coated target
[27] = target: wild type human CTLA-4Fc fusion protein (abatacept) (human); assay: ELISA; binder 100 ng/ml on coated target
[28] = target: CTLA-4Fc mutant protein M1 (human (murine residues substituted)); assay: ELISA; binder 1000 ng/ml on coated target
[29] = target: CTLA-4Fc mutant protein M10 (human (murine residues substituted)); assay: ELISA; binder 1000 ng/ml on coated target
[30] = target: CTLA-4Fc mutant protein M11 (human (murine residues substituted)); assay: ELISA; binder 1000 ng/ml on coated target
[31] = target: CTLA-4Fc mutant protein M2 (human (murine residues substituted)); assay: ELISA; binder 1000 ng/ml on coated target
[32] = target: CTLA-4Fc mutant protein M3 (human (murine residues substituted)); assay: ELISA; binder 1000 ng/ml on coated target
[33] = target: CTLA-4Fc mutant protein M4 (human (murine residues substituted)); assay: ELISA; binder 1000 ng/ml on coated target
[34] = target: CTLA-4Fc mutant protein M5 (human (murine residues substituted)); assay: ELISA; binder 1000 ng/ml on coated target
[35] = target: CTLA-4Fc mutant protein M6 (human (murine residues substituted)); assay: ELISA; binder 1000 ng/ml on coated target
[36] = target: CTLA-4Fc mutant protein M7 (human (murine residues substituted)); assay: ELISA; binder 1000 ng/ml on coated target
[37] = target: CTLA-4Fc mutant protein M8 (human (murine residues substituted)); assay: ELISA; binder 1000 ng/ml on coated target
[38] = target: CTLA-4Fc mutant protein M9 (human (murine residues substituted)); assay: ELISA; binder 1000 ng/ml on coated target
[39] = target: human IgG1-Fc control (human) [IgG part: P01857]; assay: ELISA; binder 1000 ng/ml on coated target
mouse CTLA-4-Fc (mouse) [40] = target: mouse CTLA-4-Fc (mouse) (UniProt P09793); assay: ELISA; binder 1000 ng/ml on coated target
[41] = target: wild type human CTLA-4Fc fusion protein (abatacept) (human); assay: ELISA; binder 1000 ng/ml on coated target
[42] = target: CTLA-4Fc mutant protein M11 (human (murine residues substituted)); assay: ELISA, target coated 1 ug/mL, biotinylated binder
[43] = target: human CTLA-4 (form in the blocking assay not stated) (human) (UniProt P16410); assay: blocking of B7-CTLA-4 interaction; format not stated, no data shown
Sequence of human CTLA-4 (form in the blocking assay not stated) (human) (P16410 36-223 limits assumed): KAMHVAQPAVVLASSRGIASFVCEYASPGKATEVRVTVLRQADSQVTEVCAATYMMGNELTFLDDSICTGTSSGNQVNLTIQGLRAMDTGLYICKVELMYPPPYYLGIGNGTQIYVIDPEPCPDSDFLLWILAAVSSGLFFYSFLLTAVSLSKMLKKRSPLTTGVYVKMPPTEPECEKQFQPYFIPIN

Sequence of CTLA-4Fc mutant protein M10 (human (murine residues substituted)) (chain, as listed by the source mutant): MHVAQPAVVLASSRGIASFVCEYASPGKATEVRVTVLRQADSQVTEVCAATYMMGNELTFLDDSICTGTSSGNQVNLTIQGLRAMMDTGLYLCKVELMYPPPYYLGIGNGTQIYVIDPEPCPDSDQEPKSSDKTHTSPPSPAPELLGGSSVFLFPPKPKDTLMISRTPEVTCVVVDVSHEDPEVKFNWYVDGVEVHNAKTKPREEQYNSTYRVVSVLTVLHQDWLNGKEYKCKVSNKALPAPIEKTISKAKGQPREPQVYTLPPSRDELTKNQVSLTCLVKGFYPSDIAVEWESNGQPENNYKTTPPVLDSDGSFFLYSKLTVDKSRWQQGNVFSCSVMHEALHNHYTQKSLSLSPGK
Sequence of CTLA-4Fc mutant protein M1 (human (murine residues substituted)) (chain, as listed by the source mutant): as the sequence (chain, as listed by the source limits assumed) above, with M1I, H2Q, A4T, A7S counted along it

**Q.** For “chimeric L3D10 anti-human CTLA-4 antibody”, which OD450 [1] is on record?
**A.** Its OD450 is 3.27 OD450 and 2.97 OD450.

**Q.** What about the OD450 [2] of the same substance?
**A.** The OD450 was 0.804 OD450 and 0.868 OD450.

**Q.** And the OD450 [3]?
**A.** Its OD450 is 2.84 OD450 and 2.98 OD450.

**Q.** What about the OD450 [4] of the same substance?
**A.** Its OD450 is 2.39 OD450 and 2.62 OD450.

**Q.** What about the OD450 [5] of the same substance?
**A.** The OD450 was 3.18 OD450 and 3.12 OD450.

**Q.** What about the OD450 [6] of the same substance?
**A.** Its OD450 is 2.65 OD450 and 2.66 OD450.

**Q.** What about the OD450 [7] of the same substance?
**A.** The OD450 was 3.02 OD450 and 3.03 OD450.

**Q.** What about the OD450 [8] of the same substance?
**A.** The OD450 was 3.09 OD450 and 3.07 OD450.

**Q.** What about the OD450 [9] of the same substance?
**A.** Its OD450 is 3.15 OD450 and 2.99 OD450.

**Q.** And the OD450 [10]?
**A.** The OD450 was 3.14 OD450 and 3.03 OD450.

**Q.** And the OD450 [11]?
**A.** The OD450 was 0.916 OD450.

**Q.** And the OD450 [12]?
**A.** The OD450 was 3.37 OD450 and 3.11 OD450.

**Q.** And the OD450 [13]?
**A.** Its OD450 is 0.623 OD450 and 0.593 OD450.

**Q.** And the OD450 [14]?
**A.** Its OD450 is 1.24 OD450 and 1.88 OD450.

**Q.** What about the OD450 (mouse CTLA-4-Fc (mouse) [15]) of the same substance?
**A.** The OD450 was 0.201 OD450 and 0.18 OD450.

**Q.** What about the OD450 [16] of the same substance?
**A.** Its OD450 is 3.25 OD450 and 3.24 OD450.

**Q.** What about the OD450 [17] of the same substance?
**A.** The OD450 was 0.215 OD450 and 0.216 OD450.

**Q.** What about the OD450 [18] of the same substance?
**A.** The OD450 was 0.635 OD450 and 0.759 OD450.

**Q.** And the OD450 [19]?
**A.** Its OD450 is 1.38 OD450 and 1.16 OD450.

**Q.** And the OD450 [20]?
**A.** Its OD450 is 2.32 OD450 and 2.35 OD450.

**Q.** What about the OD450 [21] of the same substance?
**A.** Its OD450 is 2.14 OD450 and 1.41 OD450.

**Q.** And the OD450 [22]?
**A.** Its OD450 is 2.84 OD450 and 2.99 OD450.

**Q.** And the OD450 [23]?
**A.** Its OD450 is 2.7 OD450 and 2.77 OD450.

**Q.** And the OD450 [24]?
**A.** The OD450 was 2.5 OD450 and 2.48 OD450.

**Q.** And the OD450 [25]?
**A.** Its OD450 is 2.91 OD450 and 2.84 OD450.

**Q.** What about the OD450 [26] of the same substance?
**A.** Its OD450 is 0.295 OD450 and 0.304 OD450.

**Q.** And the OD450 [27]?
**A.** The OD450 was 3.05 OD450 and 3.02 OD450.

**Q.** What about the OD450 [28] of the same substance?
**A.** The OD450 was 3.51 OD450.

**Q.** And the OD450 [29]?
**A.** The OD450 was 0.945 OD450 and 0.941 OD450.

**Q.** What about the OD450 [30] of the same substance?
**A.** The OD450 was 2.89 OD450 and 2.91 OD450.

**Q.** And the OD450 [31]?
**A.** Its OD450 is 2.83 OD450 and 2.75 OD450.

**Q.** What about the OD450 [32] of the same substance?
**A.** The OD450 was 3.33 OD450 and 3.3 OD450.

**Q.** What about the OD450 [33] of the same substance?
**A.** The OD450 was 3.08 OD450 and 3.15 OD450.

**Q.** What about the OD450 [34] of the same substance?
**A.** The OD450 was 3.41 OD450 and 3.54 OD450.

**Q.** And the OD450 [35]?
**A.** The OD450 was 3.28 OD450 and 3.32 OD450.

**Q.** And the OD450 [36]?
**A.** The OD450 was 3.3 OD450 and 3.35 OD450.

**Q.** What about the OD450 [37] of the same substance?
**A.** Its OD450 is 3.35 OD450 and 3.44 OD450.

**Q.** And the OD450 [38]?
**A.** The OD450 was 1.12 OD450 and 1.18 OD450.

**Q.** And the OD450 [39]?
**A.** Its OD450 is 1.39 OD450 and 1.47 OD450.

**Q.** What about the OD450 (mouse CTLA-4-Fc (mouse) [40]) of the same substance?
**A.** The OD450 was 0.942 OD450 and 0.94 OD450.

**Q.** And the OD450 [41]?
**A.** The OD450 was 3.57 OD450 and 3.67 OD450.

**Q.** What about the fold reduction of binding against WT CTLA-4Fc [42] of the same substance?
**A.** Its fold reduction of binding against WT CTLA-4Fc is 100 fold.

**Q.** And the fold higher B7 blocking activity than 10D1 [43]?
**A.** The fold higher B7 blocking activity than 10D1 was 1000 fold.
